Earlier results in article PMC12593480.

Target: IL6 (Homo sapiens) (UniProt P05231)
UniProt P05231, sequence (P05231 30-212): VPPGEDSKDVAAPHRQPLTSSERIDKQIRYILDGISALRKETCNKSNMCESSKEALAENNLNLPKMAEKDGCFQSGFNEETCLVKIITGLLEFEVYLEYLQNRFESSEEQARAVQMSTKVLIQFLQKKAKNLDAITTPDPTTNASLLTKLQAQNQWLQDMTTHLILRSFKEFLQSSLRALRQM

In the case of “IL6 receptor alpha (from UniProt P08887)”, the Kd is given as 9 nM.
